Assay: soluble on expression in E. coli; label from the status in PepcDB or PDB records

Row | Sequence | soluble on expression in E. coli
1 | AAGSINTLAQAEVRSRQISVSSPGSSTDINVKKIASIGDVCESMKQQLLVLVEWAKYIPAFCELPLDDQVALLRAHAGEHLLLGATKRSMMYKDILLLGNNYVIHRNSCEVEISRVANRVLDELVRPFQEIQIDDNEYACLKAIVFFDPDAKGLSDPVKIKNMRFQVQIGLEDYINDRQYDSRGRFGELLLLLPTLQSITWQMIEQIQFVKLFGMVKIDNLLQEMLLGG | soluble
2 | AASQSTPWGIKAIYNNSNLTSTSGGAGINIAVLDTGVNTNHPDLSNNVEQCKDFTVGTNFTDNSCTDRQGHGTHVAGSALANGGTGSGVYGVAPEADLWAYKVLGDDGSGYADDIAEAIRHAGDQATALNTKVVINMSLGSSGESSLITNAVDYAYDKGVLIIAAAGNSGPKPGSIGYPGALVNAVAVAALENTIQNGTYRVADFSSRGHKRTAGDYVIQKGDVEISAPGAAVYSTWFDGGYATISGTSMASPHAAGLAAKIWAQSPAASNVDVRGELQTRASVNDILSGNSAGSGDDIASGFGFAKVQ | soluble
3 | ADKKRALEKEDMERLMKDIPKQLHSGNRELQRARGFFILMFLLRGMPFVDLAYLKKHDIDGNVLTYRRRKTGRMLTVTLLPEAVKLIKQHMNTDPAFPYLFSLISSKEGTEEAYKEYQLALRNFNYQLMILKQVLGLTTDLSSYTARHTWATMAYYCEVHPGVISEAMGHSSITVTETYLKPFKNKKIDEANVMVFSSFRKSFSVGNCLN | not soluble
4 | AECSVDIQGNDQMQFNTNAITVDKSCKQFTVNLSHPGNLPKNVMGHNWVLSTAADMQGVVTDGMASGLDKDYLKPDDSRVIAHTKLIGSGEKDSVTFDVSKLKEGEQYMFFCSELCGINHALMKGTLTLK | soluble
5 | AEICLITGTPGSGKTLKMVSMMANDEMFKPDENGIRRKVFTNIKGLKIPHTYIETDAKKLPKSTDEQLSAHDMYEWIKKPENIGSIVIVDEAQDVWPARSAGSKIPENVQWLNTHRHQGIDIFVLTQGPKLLDQNLRTLVRKHYHIASNKMGMRTLLEWKICADDPVKMASSAFSSIYTLDKKVYDLYESAEVHTVNKVKRSK | not soluble
6 | AEIYNKDGNKLDLYGKIDGLHYFSDDKDVDGDQTYMRLGVKGETQINDQLTGYGQWEYNVQANNTESSSDQAWTRLAFAGLKFGDAGSFDYGRNYGVVYDVTSWTDVLPEFGGDTYGSDNFLQSRANGVATYRNSDFFGLVDGLNFALQYQGKNGSVSGEGATNNGRGALKQNGDGFGTSVTYDIFDGISAGFAYANSKRTDDQNQLLLGEGDHAETYTGGLKYDANNIYLATQYTQTYNATRAGSLGFANKAQNFEVAAQYQFDFGLRPSVAYLQSKGKDLNGYGDQDILKYVDVGATYYFNKNMSTYVDYKINLLDDNSFTRSAGISTDDVVALGLVYQF | soluble
7 | AELLLSDNEDKKQRIKEEKQLKLVKWNFQAPTDEHISQLQTLLGNQAKVSLMSQLFHKDFKQHLAALDSLVRLADTSPRSLLSNSDLLLKWCTLRFFETNPAALIKVLELCKVIVELIRDTETPMSQEEVSAFVPYLLLKTGEAKDNMRTSVRDIVNVLSDVVGPLKMTPMLLDALKSKNARQRSECLLVIEYYITNAGISPLKSLSVEKTVAPFVGDKDVNVRNAAINVLVACFKFEGDQMWKAAGRMADKDKSLVEERIKRTGV | soluble
8 | AEPAGRQRPRREPEAMDEQSVESIAEVFRCFICMEKLRDARLCPHCSKLCCFSCIRRWLTEQRAQCPHCRAPLQLRELVNCRWAEEVTQQLDTLQLCSLTKHEENEKDKCENHHEKLSVFCWTCKKCICHQCALWGGMHGGHTFKPLAEIYEQHVTKVNEEVAKLRRRLMELISLVQEVERNVEAVRNAKDERVREIRNAVEMMIARLDTQLKNKLITLMGQKTSLTQETELLESLLQEVEHQLRSCSKSELISKSSEILMMFQQVHRKPMASFVTTPVPPDFTSELVPSYDSATFVLENFSTLRQRADPVYSPPLQVSGLCWRLKVYPDGNGVVRGYYLSVFLELSAGLPETSKYEYRVEMVHQSCNDPTKNIIREFASDFEVGECWGYNRFFRLDLLANEGYLNPQNDTVILRFQVRSPTFFQKSRDQHWYITQLEAAQTSYIQQINNLKERLTIELSRTQKSRDLSPPDNHLSPQNDDALETRAKKSACSDMLLEGGPTTASVREAKEDEEDEEKIQNEDYHHELSDGDLDLDLVYEDEVNQLDGSSSSASSTATSNTEENDIDEETMSGENDVEYNNMELEEGELMEDAAAAGPAGSSHGYVGSSSRISRRTHLCSAATSSLLDIDPLILIHLLDLKDRSSIENLWGLQPRPPASLLQPTASYSRKDKDQRKQQAMWRVPSDLKMLKRLKTQMAEVRCMKTDVKNTLSEIKSSSAASGDMQTSLFSADQAALAACGTENSGRLQDLGMELLAKSSVANCYIRNSTNKKSNSPKPARSSVAGSLSLRRAVDPGENSRSKGDCQTLSEGSPGSSQSGSRHSSPRALIHGSIGDILPKTEDRQCKALDSDAVVVAVFSGLPAVEKRRKMVTLGANAKGGHLEGLQMTDLENNSETGELQPVLPEGASAAPEEGMSSDSDIECDTENEEQEEHTSVGGFHDSFMVMTQPPDEDTHSSFPDGEQIGPEDLSFNTDENSGR | soluble
9 | AETTVKPTKLAVIGAGAVGSTLAFAAAQRGIAREIVLEDIAKERVEAEVLDMQHGSSFYPTVSIDGSDDPEICRDADMVVITAGPRQKPGQSRLELVGATVNILKAIMPNLVKVAPNAIYMLITNPVDIATHVAQKLTGLPENQIFGSGTNLDSARLRFLIAQQTGVNVKNVHAYIAGEHGDSEVPLWESATIGGVPMSDWTPLPGHDPLDADKREEIHQEVKNAAYKIINGKGATNYAIGMSGVDIIEAVLHDTNRILPVSSMLKDFHGISDICMSVPTLLNRQGVNNTINTPVSDKELAALKRSAETLKETAAQFGF | soluble
10 | AFEKKTANIYTYKSTSGVTSFSDIEPLDVDFSRYRFDCYACEVDSLIDWRKATLYLQPYKNDINKAALKYDIDPAFVRAVIHAESHFNPQAVSKQGAQGLMQLMPATAKELGVRNSLSAQQNIKGGVKHLARLLRKYKGDNKLASAAYNAGEGAVKRHGGIPPYKETQVYVERVGILHQRYGRFSH | not soluble
11 | AFSSTTTLTPSNVASREFIDTRAPNPEICVQYGASAMVMDARLFVTLNPFNVYVAQPNIRPGCVLRQNNWAILENKKLVTSDQVRECKNRLNTFGFTGNLDSEKPDIRCIYQNESAQNFFLSQPGAVGPSQDTERF | not soluble
12 | AFYNITLRTNDGEKKIECNEDEYILDASERQNVELPYSCRGGSCSTCAAKLVEGEVDNDDQSYLDEEQIKKKYILLCTCYPKSDCVIETHKEDELHDM | soluble
13 | AGENLYFQSLMNNFGNEEFDCHFLDEGFTAKDILDQKINEVSSSDDKDAFYVADLGDILKKHLRWLKALPRVTPFYAVKCNDSKAIVKTLAATGTGFDCASKTEIQLVQSLGVPPERIIYANPCKQVSQIKYAANNGVQMMTFDSEVELMKVARAHPKAKLVLRIATDDSKAVCRLSVKFGATLRTSRLLLERAKELNIDVVGVSFHVGSGCTDPETFVQAISDARCVFDMGAEVGFSMYLLDIGGGFPGSEDVKLKFEEITGVINPALDKYFPSDSGVRIIAEPGRYYVASAFTLAVNIIAKKIVLKEQTGSDDEDESSEQTFMYYVNDGVYGSFNCILYDHAHVKPLLQKRPKPDEKYYSSSIWGPTCDGLDRIVERCDLPEMHVGDWMLFENMGAYTVAAASTFNGFQRPTIYYVMSGPAWQLMQQFQNPDFPPEVEEQDASTLPVSCAWESGMKRHRAACASASINV | soluble
14 | AGHDGSQLAARLDLPQGPVLATALFAHCFTCSKDIPAARRIAARLAAMGIAVLRFDFTGLGHSEGEFANTTFTSNVGDLAAAARYLAGRDMAPALLIGHSLGGAAVLRARAQIASVRAVVTIGAPADPGHVAHHFETALPRIQAEGAAEVCLGGRPFRIGRDFVEDIAASALQPAIADLRAALLVLHAPRDETVSIDNASQIFMAAKHPKSFVTLDDADHLISRARDAEYAAEVIAAWAGRYVD | not soluble
15 | AGLPRNAVTAVVPSPFHHAEAGVLRVPDLKADPRNAAEHTAAIIRELPELVKGARGSLVLFSSRKQMQEVFDGLDRDWRKRVFIQGNLSKQETLNKHKSRVDDGEDSVLFGLASFAEGVDLPGAYCEHVVIAKIPFAVPDDPVEAALAEWIEARGGNPFMEIAVPDASLRLVQACGRLLRTEQDRGTITLLDRRVVTQRYGKAILNALPPFRREIA | not soluble
16 | AHHHHHHGSAEMVIPYPHLQRILEKTCELAVTKPMAERMMEIVERKLADLFEVAYENATAENSETIKMRHIPITKGFRSSMNLFRAVIEDENIKIEPILDYVLRKIPADKPLEEEVINELPIITGTLFVLIGRVIKALHPEVRNVYPEHIEEAEKVLDYTL | soluble
17 | AHHHHHHGSEEYYVCPECGSEDVEVIKERGREVTLRCNECGYVWMITLPKLREIPVIVSKHERSFREKAVLPEDEVIKVGDVIEIENDQVKVLSIELPGGKRVRKAKVAEIQTIWGESLTYPKVFGVSIYLPGGITQSFKVVVDREEEFVVGEVIEVGGYTFKVEMIKTEKKLMRSGKAKAENIVRLMGHAIKGRARRKLKIYEGYDSISAENQ | not soluble
18 | AHHHHHHGSFTGKVLIPVKVLKKFENWNEGDMILLEDWKAKELWESGVVEIIDEADKVIGEIDRVLSEEKKNLPLTPIPEGLYEKAEFYIYYLEKYIQEKVDNIETIQTKVTKLANLKKKYKTLKEIRFKKILEAVRLRPNSMEILARLSPAEKRIYLEISKIRREWIGD | not soluble
19 | AHHHHHHGSGKLDWIREELEELKKKGLYVTIRVLQSAQGPWVIVNGKKVLNMCSNNYLGLAAHPKIKEAAIRAILDYGVGAGAVRTIAGTMDLHVELEEKLAKFKKREAAILFQSGYNANLGAISALLRKGEDGVFLSEELNHASIIDGMRLSGAPKVIYKHLDMEDLKKKLEENKDKKKKIIVTDGVFSMDGDLAPLPEIVELAEQYDAIVYVDDAHGEGVLGSHGRGIVDHFNLHDKVDFEMGTLSKAFGVIGGYVAGPEEAIEYLKQRARPFLFSSAPNPPDVAAAIAAVEILQKSDDLVKKLWDNTHFLQKGLRDLGYDLGNTKHPITPVMLYDEKLAQEFSRRLFEEYNIFAQAIVYPTVPLGTARIRLEPSAAHTKEDLKLVIDAFEDLGRKTGFLK | soluble
20 | AHHHHHHGSGKRVVIALGGNALQQRGQKGSYEEMMDNVRKTARQIAEIIARGYEVVITHGNGPQVGSLLLHMDAGQATYGIPAQPMDVAGAMSQGWIGYMIQQALKNELRKRGMEKKVVTIITQTIVDKNDPAFQNPTKPVGPFYDEETAKRLAREKGWIVKEDSGRGWRRVVPSPDPKGHVEAETIKKLVERGVIVIASGGGGVPVILEDGEIKGVEAVIDKDLAGEKLAEEVNADIFMILTDVNGAALYYGTEKEQWLREVKVEELRKYYEEGHFKAGSMGPKVLAAIRFIEWGGERAIIAHLEKAVEALEGKTGTQVLP | soluble
21 | AHHHHHHGSIRVRNLSFSYNGRAILRDIAFEVKEGEFLAILGPNGAGKSTLLRCLAKILKCEGEIEICGRNLHEYSRRELSKTIAYVPQRVEPNFLRVFDMVLLGRKPYMGIIPSEEDIKAVERALKTLKIEHLAGRLTKTLSGGELQKVAIARALAQESSIILLDEPTNNLDPRSQVDLMNLLRKLSQAGKTIVTVMHDINLALRFAEKLMFMKNGEVVGIVETKKISPEIIEETFNVKAEIFETPSGVKFCQFY | soluble

From the DeepSol protein solubility set
